{"source": "patent US20120316071A1", "about": "(published 2012)", "binders": {"B1": {"name": "Fab VH1-46_IGHD6-6*01_IGHJ1*01 & L6_IGKJ1*01 (Fab, V domains shown)", "VH": "QVQLVQSGAEVKKPGASVKVSCKASGYTFTSYYMHWVRQAPGQGLEWMGIINPSGGSTSYAQKFQGRVTMTRDTSTSTVYMELSSLRSEDTAVYYCAREEYSSSSAEYFQHWGQGTLVTVSS", "VL": "not shown", "notes": "Only variable domains are tied to the molecule; Tested as a Fab made in E. coli: heavy chain from Plasmid A (CH1 constant region, His6 and Flag tags), kappa light chain from Plasmid C (kappa CL); also called parent Hit Fab against DLL4; VH1-46_IGHD6-6*01_IGHJ1*01 & L6_IGKJ1*01 (parental)"}, "B2": {"name": "Fab VH1-46_IGHD6-6*01_IGHJ1*01 S102A/S103P/S104F (APF) & L6_IGKJ1*01 (Fab, V domains shown)", "VH": "B1 VH with S102A, S103P, S104F", "VL": "not shown", "notes": "Tested as a Fab made in E. coli: VH cloned in Plasmid A (CH1 constant region, His6 and Flag tags), VL in Plasmid C (kappa constant region); also called H:APF & L:wt; APF triple mutant"}, "B3": {"name": "Fab VH4-34_IGHD7-27*01_IGHJ4*01 & L5_IGKJ1*01 (Fab, V domains shown)", "VH": "QVQLQQWGAGLLKPSETLSLTCAVYGGSFSGYYWSWIRQPPGKGLEWIGEINHSGSTNYNPSLKSRVTISVDTSKNQFSLKLSSVTAADTAVYYCARANWGDYFDYWGQGTLVTVSS", "VL": "DIQMTQSPSSVSASVGDRVTITCRASQGISSWLAWYQQKPGKAPKLLIYAASSLQSGVPSRFSGSGSGTDFTLTISSLQPEDFATYYCQQANSFPPWTFGQGTKVEIKR", "notes": "Germline library Fab expressed in E. coli; VH was cloned into Plasmid A, which adds CH1 with His6 and Flag tags"}}, "key": {"[1]": {"molecular_target": "T1, Recombinant Human DLL4 (R&D Systems Cat#1506-D4/CF) (human, UniProt Q9NR61 27-524)", "T1 construct": "Bought recombinant protein; also called rHuman DLL4; delta-like protein 4", "assay": "MSD multispot ECL, antigen spotted, Fab 2383 nM; blank spot 344"}, "[2]": {"molecular_target": "T2, rHuman IGF-1 sR, (IGF-1 sR), CF (R&D Systems Cat#391-GR) (human, UniProt P08069 31-932)", "T2 construct": "Bought soluble receptor; also called insulin-like growth factor-1 soluble receptor", "assay": "MSD multispot ECL, antigen spotted, Fab 2383 nM; blank spot 344"}, "[3]": {"molecular_target": "T3, rHuman EGF R/Fc Chimera, CF (R&D Systems Cat#344-ER) (human, UniProt P00533 25-645)", "T3 construct": "Bought reagent; also called epidermal growth factor receptor", "assay": "MSD multispot ECL, antigen spotted, Fab 2383 nM; blank spot 344"}, "[4]": {"molecular_target": "T4, rHuman ErbB2/Fc Chimera, CF (R&D Systems Cat#1129-ER) (human, UniProt P04626 23-652)", "T4 construct": "Bought reagent; also called human epidermal growth factor 2 receptor", "assay": "MSD multispot ECL, antigen spotted, Fab 2383 nM; blank spot 344"}, "[5]": {"molecular_target": "T5, rHuman Notch-1/Fc Chimera, CF (R&D Systems Cat#3647-TK) (human, UniProt P46531 19-526)", "T5 construct": "Bought reagent", "assay": "MSD multispot ECL, antigen spotted, Fab 2383 nM; blank spot 344"}, "[6]": {"molecular_target": "T6, rHuman HGF R/c-MET/Fc Chimera, CF (R&D Systems Cat#358-MT/CF) (human, UniProt P08581 25-932)", "T6 construct": "Bought reagent; also called HGF R/Fc; hepatocyte growth factor receptor", "assay": "MSD multispot ECL, antigen spotted, Fab 2383 nM; blank spot 344"}, "[7]": {"molecular_target": "T7, rHuman Erythropoietin R/Fc Chimera, CF (R&D Systems Cat#963-ER) (human, UniProt P19235 25-250)", "T7 construct": "Bought reagent; also called EPO R/Fc; Epo R", "T7 sequence (looked up)": "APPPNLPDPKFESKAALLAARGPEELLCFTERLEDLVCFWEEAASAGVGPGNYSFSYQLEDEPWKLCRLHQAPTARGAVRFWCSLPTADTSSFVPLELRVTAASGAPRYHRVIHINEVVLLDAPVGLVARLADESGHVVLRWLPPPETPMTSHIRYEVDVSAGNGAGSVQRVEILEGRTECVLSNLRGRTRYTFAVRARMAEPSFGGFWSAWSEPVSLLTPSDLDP", "assay": "MSD multispot ECL, antigen spotted, Fab 2383 nM; blank spot 344"}, "[8]": {"molecular_target": "T8, rHuman CD44/Fc Chimera, CF (R&D Systems Cat#3660-CD) (human, UniProt P16070 21-220)", "T8 construct": "Bought reagent", "assay": "MSD multispot ECL, antigen spotted, Fab 2383 nM; blank spot 344"}, "[9]": {"molecular_target": "T9, rHuman IGF-1 sR, CF (R&D Systems Cat#391-GR) (human, UniProt P08069 31-932)", "T9 construct": "Bought recombinant soluble receptor; also called insulin-like growth factor-1 soluble receptor", "assay": "ECL Multispot (MSD), antigen spotted; Fab 5 (µM); blank 211"}, "[10]": {"molecular_target": "T10, rHuman ErbB2/Fc Chimera, CF (R&D Systems Cat#1129-ER) (human, UniProt P04626 23-652)", "T10 construct": "Bought recombinant protein; Fc part of the bought chimera not given", "assay": "ECL Multispot (MSD), antigen spotted; Fab 5 (µM); blank 211"}, "[11]": {"molecular_target": "T11, rHuman CD44/Fc Chimera, CF (R&D Systems Cat#3660-CD) (human, UniProt P16070 21-220)", "T11 construct": "Bought recombinant protein; Fc part of the bought chimera not given", "assay": "ECL Multispot (MSD), antigen spotted; Fab 5 (µM); blank 211"}, "[12]": {"molecular_target": "T12, rHuman EGF R/Fc Chimera, CF (R&D Systems Cat#344-ER) (human, UniProt P00533 25-645)", "T12 construct": "Bought recombinant protein; Fc part of the bought chimera not given", "assay": "ECL Multispot (MSD), antigen spotted; Fab 5 (µM); blank 211"}, "[13]": {"molecular_target": "T13, rHuman HGF R/c-MET/Fc Chimera, CF (R&D Systems Cat#358-MT/CF) (human, UniProt P08581 25-932)", "T13 construct": "Bought recombinant protein; also called HGF R/Fc; Fc part of the bought chimera not given", "assay": "ECL Multispot (MSD), antigen spotted; Fab 5 (µM); blank 211"}, "[14]": {"molecular_target": "T14, rHuman Notch-1/Fc Chimera, CF (R&D Systems Cat#3647-TK) (human, UniProt P46531 19-526)", "T14 construct": "Bought recombinant protein; Fc part of the bought chimera not given", "assay": "ECL Multispot (MSD), antigen spotted; Fab 5 (µM); blank 211"}, "[15]": {"molecular_target": "T15, rHuman Erythropoietin R/Fc Chimera, CF (R&D Systems Cat#963-ER) (human, UniProt P19235 25-250)", "T15 construct": "Bought recombinant protein; also called EPO R; EPO R/Fc; Fc part of the bought chimera not given", "T15 sequence (looked up)": "T7 sequence (looked up)", "assay": "ECL Multispot (MSD), antigen spotted; Fab 5 (µM); blank 211"}, "[16]": {"molecular_target": "T16, rHuman P-Cadherin/Fc Chimera, CF (R&D Systems Cat#861-PC) (human, UniProt P22223 108-654)", "T16 construct": "Bought recombinant protein; Fc part of the bought chimera not given", "assay": "ECL Multispot (MSD), antigen spotted; Fab 5 (µM); blank 211"}, "[17]": {"molecular_target": "T17, Recombinant Human DLL4 (R&D Systems Cat#1506-D4/CF) (human, UniProt Q9NR61 27-529)", "T17 construct": "Bought recombinant protein; also called delta-like protein 4; rHuman DLL4", "assay": "ECL Multispot (MSD), antigen spotted; Fab 5 (µM); blank 211"}, "[18]": {"molecular_target": "T18, rHuman HGF R/c-MET/Fc Chimera, CF (R&D Systems Cat#358-MT/CF) (human, UniProt P08581 25-932)", "T18 construct": "Bought recombinant protein; also called HGF R/Fc; hepatocyte growth factor receptor; Fc part of the bought chimera not given", "assay": "MSD multispot ECL, antigen spotted on plate; Fab 0.00797 uM; blank spot 364"}, "[19]": {"molecular_target": "T19, rHuman CD44/Fc Chimera, CF (R&D Systems Cat#3660-CD) (human, UniProt P16070 21-220)", "T19 construct": "Bought recombinant protein; Fc part of the bought chimera not given", "assay": "MSD multispot ECL, antigen spotted on plate; Fab 0.00797 uM; blank spot 364"}}, "note": "Substitutions are numbered along the chain they refer to. Names may count otherwise."}
{"binder": "B1", "values": [{"measurement": "ECL signal", "setting": "[1]", "result": 11800, "unit": "ECL signal"}, {"measurement": "ECL signal", "setting": "[2]", "result": 527, "unit": "ECL signal"}, {"measurement": "ECL signal", "setting": "[3]", "result": 621, "unit": "ECL signal"}, {"measurement": "ECL signal", "setting": "[4]", "result": 454, "unit": "ECL signal"}, {"measurement": "ECL signal", "setting": "[5]", "result": 690, "unit": "ECL signal"}, {"measurement": "ECL signal", "setting": "[6]", "result": 762, "unit": "ECL signal"}, {"measurement": "ECL signal", "setting": "[7]", "result": 658, "unit": "ECL signal"}, {"measurement": "ECL signal", "setting": "[8]", "result": 559, "unit": "ECL signal"}]}
{"binder": "B2", "values": [{"measurement": "ECL signal", "setting": "[9]", "result": 300}, {"measurement": "ECL signal", "setting": "[10]", "result": 401}, {"measurement": "ECL signal", "setting": "[11]", "result": 343}, {"measurement": "ECL signal", "setting": "[12]", "result": 356}, {"measurement": "ECL signal", "setting": "[13]", "result": 309}, {"measurement": "ECL signal", "setting": "[14]", "result": 338}, {"measurement": "ECL signal", "setting": "[15]", "result": 423}, {"measurement": "ECL signal", "setting": "[16]", "result": 547}, {"measurement": "ECL signal", "setting": "[17]", "result": 54900}]}
{"binder": "B3", "values": [{"measurement": "ECL signal", "setting": "[18]", "result": 419}, {"measurement": "ECL signal", "setting": "[19]", "result": 490}]}
